The results in this text go back to the supplement of paper PMC10201428.

± gives the standard deviation of the averaged measurements.

Data set [1] has as its system VchCAST RNA-guided transposition machinery (E. coli BL21(DE3) host, lacZ target). Nature of the data set: relative integration efficiency (T-LR orientation) vs wild-type transposon end (log2 (normalized fold change)); transposon end mutated: right end (5 bp flank + 75 bp right end); higher = more efficient transposition. How it is done: (§1)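 Pooled, barcoded VchCAST (Tn6677) mini-transposon donor libraries; each variable transposon-end sequence sits in a fixed pDonor mini-transposon context (10-bp barcode and cargo not included). Left- or right-end libraries were co-transformed with pEffector (TniQ-Cascade, TnsABC, lacZ crRNA, T7, 0.1 mM IPTG) into E. coli BL21(DE3) and grown 18 h at 37 C. T-LR and T-RL junction amplicons were sequenced; output/input barcode fold change was normalised to the mean of four wild-type barcodes and log2-transformed. Two biological replicates; zero-count/undetected variants carry floor values (-10 / -15), censored here. Barcode uncoupling by PCR recombination adds noise.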

Data set [2] shares this test system. The experiment in a line: relative integration efficiency (T-RL orientation) vs wild-type transposon end (log2 (normalized fold change)); transposon end mutated: right end (5 bp flank + 75 bp right end); higher = more efficient transposition. How it is done: as §1

As for “AACGGTGTTGATACAACCATAAAATGATAATTACACCCATAAATTGATAATTATCACACCCATAAATTGATATTGCCTCTGATCATAGTCAGACCAACATTGCTACGACCCGTATTCGCACCGACAC”, the “relative integration efficiency (log2)” value was 0.221 ± 0.4 in data set [1] and -0.153 ± 0.0083 in data set [2].
Regarding “AACTTTGTTGATACAACCATAAAATGATAATTACACCCATAAATTGATAATTATCACACCCATAAATTGATATTGCCTCTGATCATAGTCAGACCAACATTGCTACGACCCGTATTCGCACCGACAC”, the “relative integration efficiency (log2)” value in data set [1] is 0.0855 ± 0.25; in data set [2], -0.217 ± 0.078.
For the sequence “ACAAATGTTGATACAACCATAAAATGATAATTACACCCATAAATTGATAATTATCACACCCATAAATTGATATTGCCTCTGATCATAGTCAGACCAACATTGCTACGACCCGTATTCGCACCGACAC”, the figures for the “relative integration efficiency (log2)” value in data set [1] and in data set [2] were 0.224 ± 0.075 and 0.215 ± 0.12, respectively.
As to “ACAGGTGTTGATACAACCATAAAATGATAATTACACCCATAAATTGATAATTATCACACCCATAAATTGATATTGCCTCTGATCATAGTCAGACCAACATTGCTACGACCCGTATTCGCACCGACAC”, the “relative integration efficiency (log2)” value is -0.1 ± 0.25 in data set [1] and -0.284 ± 0.012 in data set [2].
For the sequence “ACATAAGTTGATACAACCATAAAATGATAATTACACCCATAAATTGATAATTATCACACCCATAAATTGATATTGCCTCTGATCATAGTCAGACCAACATTGCTACGACCCGTATTCGCACCGACAC”, the “relative integration efficiency (log2)” value in data set [1] was -4.25 ± 0.29; in data set [2] it was -6.621 ± 0.045.
Turning to “ACATGGGTTGATACAACCATAAAATGATAATTACACCCATAAATTGATAATTATCACACCCATAAATTGATATTGCCTCTGATCATAGTCAGACCAACATTGCTACGACCCGTATTCGCACCGACAC”, the “relative integration efficiency (log2)” value in data set [1] is -5.51 ± 0.64; in data set [2] it was -6.44 ± 0.3.
Turning to “ACATTACAAGATACAACCATAAAATGATAATTACACCCATAAATTGATAATTATCACACCCATAAATTGATATTGCCTCTGATCATAGTCAGACCAACATTGCTACGACCCGTATTCGCACCGACAC”, the “relative integration efficiency (log2)” value in data set [1] is -4.65 ± 0.93; in data set [2], -5.91 ± 0.056.
Consider “ACATTAGTCGATACAACCATAAAATGATAATTACACCCATAAATGGATAATTATCACACCCAATTTAACTATAACGCTCTGATCATAGTCAGACCAACATTGCTACGACCCGTATTCGCACCGACAC”, for which the “relative integration efficiency (log2)” value was -5.29 ± 1.4 in data set [1] and -6.76 ± 0.26 in data set [2].
Turning to “ACATTAGTCGATACAACCATAAAATGATAATTACACCCATAAATGGATCATTATCACACCCAATTTAACTATAACGCTCTGATCATAGTCAGACCAACATTGCTACGACCCGTATTCGCACCGACAC”, the “relative integration efficiency (log2)” value in data set [1] was -5.41 ± 0.28; in data set [2], -8.21 ± 0.66.
Turning to “ACATTAGTCGATACAACCATAAAATGATAATTACACCCATAAATTCATCATTATCACACCCAATTTAACTATAACGCTCTGATCATAGTCAGACCAACATTGCTACGACCCGTATTCGCACCGACAC”, the entries for the “relative integration efficiency (log2)” value in data set [1] and in data set [2] were -6.06 ± 1.4 and -7.32 ± 0.43, respectively.
With “ACATTAGTCGATACAACCATAAAATGATAATTACACCCATAAATTGATAATTATCACACCCAATTTAACTATAACGCTCTGATCATAGTCAGACCAACATTGCTACGACCCGTATTCGCACCGACAC”, the “relative integration efficiency (log2)” value in data set [1] was -5.9 ± 1.5; in data set [2], -7.53 ± 1.2.
In the case of “ACATTAGTCGATACAACCATAAAATGATAATTACACCCATAAATTGATCATTATCACACCCAATTTAACTATAACGCTCTGATCATAGTCAGACCAACATTGCTACGACCCGTATTCGCACCGACAC”, the “relative integration efficiency (log2)” value in data set [1] is -3.34 ± 1; in data set [2] it was -7.26 ± 0.69.
As to “ACATTAGTGGATACAACCATAAAATGATAATTACACCCATAAATGGATAATTATCACACCCAATTTAACTATAACGCTCTGATCATAGTCAGACCAACATTGCTACGACCCGTATTCGCACCGACAC”, the “relative integration efficiency (log2)” value in data set [1] is -5.46 ± 0.48; in data set [2] it was -7.08 ± 1.1.
